Here are results for 3 molecules from PMC5634496 (Nature Communications, 2017).

Data set [1] deals with the molecule itself. Briefly: native gel or EMSA; proteins purified on anti-Flag M2 magnetic beads, eluted, resolved on 10% native gel, immunoblot with Flag antibody.
Data set [2] deals with T1, GST-Ubc13 (UniProt P61088 1-152).
T1 construct: Ubc13 (UBE2N), cDNA in pGEX-4T-1; The end of GST is read from the printed name GST-Ubc13; also called UBE2N; source: E. coli BL21(DE3/pLys), purified (glutathione sepharose beads); not shown: GST, N-terminal, kept
T1 sequence (looked up): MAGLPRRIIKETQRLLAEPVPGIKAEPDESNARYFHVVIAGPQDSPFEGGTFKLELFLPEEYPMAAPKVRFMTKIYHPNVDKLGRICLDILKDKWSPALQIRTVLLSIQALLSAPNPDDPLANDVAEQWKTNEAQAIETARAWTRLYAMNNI
The experiment in a line: pull-down; purified GST-Ubc13 (or GST) mixed with purified TRAF6 fragments and glutathione sepharose beads in lysis buffer A (20 mM Tris-HCl pH 7.4, 150 mM NaCl, 0.5% NP-40, 10% glycerol), 4 °C, 60 min; immunoblot. Particulars: both partners purified. In general terms: In western blotting, separated proteins are transferred to a membrane and probed.

B1: TRAF6 mutant M5 (deletion of amino acids 313-319), Flag-tagged (natural protein, mouse, UniProt P70196-1 1-530, looked up)
chain: MSLLNCENSCGSSQSSSDCCAAMAASCSAAVKDDSVSGSASTGNLSSSFMEEIQGYDVEFDPPLESKYECPICLMALREAVQTPCGHRFCKACIIKSIRDAGHKCPVDNEILLENQLFPDNFAKREILSLTVKCPNKGCLQKMELRHLEDHQVHCEFALVNCPQCQRPFQKCQVNTHIIEDCPRRQVSCVNCAVSMAYEEKEIHDQSCPLANIICEYCGTILIREQMPNHYDLDCPTAPIPCTFSVFGCHEKMQRNHLARHLQENTQLHMRLLAQAVHNVNLALRPCDAASPSRGCRPEDPNYEETIKQLESQIRELTAKMETQSMYVGELKRTIRTLEDKVAEMEAQQCNGIYIWKIGNFGMHLKSQEEERPVVIHSPGFYTGRPGYKLCMRLHLQLPTAQRCANYISLFVHTMQGEYDSHLPWPFQGTIRLTILDQSEALIRQNHEEVMDAKPELLAFQRPTIPRNPKGFGYVTFMHLEALRQGTFIKDDTLLVRCEVSTRFDMGGLRKEGFQPRSTDAGV
notes: TRAF6, mouse, mutant M5: one complete heptad unit of the CC domain deleted; they may differ; also called TRAF6-M5; source: co-IP: Flag-tagged with Myc-tagged TRAF6 WT
As to B1, the binding result in data set [1] is on record as “binds”.

B2: TRAF6 mutant M4 (V315A, R316A, H319A), Flag-tagged (natural protein, mouse, UniProt P70196-1 1-530, looked up)
chain: MSLLNCENSCGSSQSSSDCCAAMAASCSAAVKDDSVSGSASTGNLSSSFMEEIQGYDVEFDPPLESKYECPICLMALREAVQTPCGHRFCKACIIKSIRDAGHKCPVDNEILLENQLFPDNFAKREILSLTVKCPNKGCLQKMELRHLEDHQVHCEFALVNCPQCQRPFQKCQVNTHIIEDCPRRQVSCVNCAVSMAYEEKEIHDQSCPLANIICEYCGTILIREQMPNHYDLDCPTAPIPCTFSVFGCHEKMQRNHLARHLQENTQLHMRLLAQAVHNVNLALRPCDAASPSRGCRPEDPNYEETIKQLESRLAAQDAQIRELTAKMETQSMYVGELKRTIRTLEDKVAEMEAQQCNGIYIWKIGNFGMHLKSQEEERPVVIHSPGFYTGRPGYKLCMRLHLQLPTAQRCANYISLFVHTMQGEYDSHLPWPFQGTIRLTILDQSEALIRQNHEEVMDAKPELLAFQRPTIPRNPKGFGYVTFMHLEALRQGTFIKDDTLLVRCEVSTRFDMGGLRKEGFQPRSTDAGV
notes: TRAF6, mouse, mutant M4 in the CC domain; they may differ (MBP fusion, T6RZC background); also called TRAF6-M4; source: co-IP: Flag-tagged with Myc-tagged TRAF6 WT
B2: the binding result in data set [1] was “binds”.

B3: CC-Flag (TRAF6 coiled-coil domain) (domain or fragment, mouse, UniProt P70196-1 296-400, looked up)
chain: CRPEDPNYEETIKQLESRLVRQDHQIRELTAKMETQSMYVGELKRTIRTLEDKVAEMEAQQCNGIYIWKIGNFGMHLKSQEEERPVVIHSPGFYTGRPGYKLCMR
notes: TRAF6 CC domain, mouse; the limits 296-400 aa are printed in the methods for the CC domain cloned with an MBP tag for E. coli; The end of Flag is read from the printed name CC-Flag; also called CC domain; CC WT; not shown: Flag, C-terminal, kept
On to B3, for which, in data set [2], the binding result is “binds”.
